Results: paper PMC3420021, “Crystallographic Analysis of Polypyrimidine Tract-Binding Protein-Raver1 Interactions Involved in Regulation of Alternative Splicing” (Structure(London, England:1993), 2011)
Each block holds one binder with its values, some of them ahead of it.

Molecular target: T1, PTB RRM2 (residues 156-285 of PTB) as it stands in the PRI-RRM2 chimeras (UniProt P26599 156-285)
T1 construct: the linker residues had no density; source: E. coli BL21 (DE3), purified as part of the PRI-RRM2 chimeras
T1 sequence (P26599 156-285, change not shown): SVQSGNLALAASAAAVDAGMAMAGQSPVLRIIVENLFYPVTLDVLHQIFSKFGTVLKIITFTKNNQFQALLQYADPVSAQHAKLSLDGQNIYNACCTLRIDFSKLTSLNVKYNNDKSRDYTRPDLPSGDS
Experiment: crystal structure; PRI sequence fused as N-terminal extension to PTB 156-285 on one chain; sitting drop, 0.2 M NaI, 0.1 M Bis-Trispropane pH 6.5, 20% PEG 3350; two complexes in the asymmetric unit
Conditions: both partners purified

binding result: binds
B1: Raver1 PRI3 12-residue sequence as it stands in the PRI3-RRM2 chimera (peptide)
peptide: PGVSLLGAPPKD
notes: core SLLGAPP is numbered 1-7; In the crystal it was joined on one chain with m3 (chimera m1); source: E. coli BL21 (DE3), purified as part of the PRI3-RRM2 chimera

binding result: binds
B2: Raver1 PRI4 12-residue sequence as it stands in the PRI4-RRM2 chimera (peptide)
peptide: SSEGLLGLGPGP
notes: core GLLGLGP is numbered 1-7; In the crystal it was joined on one chain with m3 (chimera m5); source: E. coli BL21 (DE3), purified as part of the PRI4-RRM2 chimera
